Measurements taken from article doi:10.1101/2020.11.04.368837 (bioRxiv, 2020).

Legend:
AUC = target: the molecule itself; experiment: AUC
native gel or EMSA = target: the molecule itself; experiment: native gel or EMSA
[1] = target: the molecule itself; experiment: single-particle cryo-EM, 2D class averages

Protein	ratio between dimer and tetramer population (AUC)	stoichiometry N (native gel or EMSA)	stoichiometry N [1]
recombinant human TRAP1 (mitochondrial Hsp90), wild type (natural protein, UniProt Q12931 60-704, looked up) STQTAEDKEEPLHSIISSTESVQGSTSKHEFQAETKKLLDIVARSLYSEKEVFIRELISNASDALEKLRHKLVSDGQALPEMEIHLQTNAEKGTITIQDTGIGMTQEELVSNLGTIARSGSKAFLDALQNQAEASSKIIGQFGVGFYSAFMVADRVEVYSRSAAPGSLGYQWLSDGSGVFEIAEASGVRTGTKIIIHLKSDCKEFSSEARVRDVVTKYSNFVSFPLYLNGRRMNTLQAIWMMDPKDVREWQHEEFYRYVAQAHDKPRYTLHYKTDAPLNIRSIFYVPDMKPSMFDVSRELGSSVALYSRKVLIQTKATDILPKWLRFIRGVVDSEDIPLNLSRELLQESALIRKLRDVLQQRLIKFFIDQSKKDAEKYAKFFEDYGLFMREGIVTATEQEVKEDIAKLLRYESSALPSGQLTSLSEYASRMRAGTRNIYYLCAPNRHLAEHSPYYEAMKKKDTEVLFCFEQFDELTLLHLREFDKKKLISVETDIVVDHYKEEKFEDRSPAAECLSEKETEELMAWMRNVLGSRVTNVKVTLRLDTHPAMVTVLEMGAARHFLRMQQLAKTQEERAQLLQPTLEINPRHALIKKLNQLRASEPGLAQLLVDQIYENAMIAAGLVDDPRAMVGRLNELLVKALERH	7 dimer:tetramer (7:1)	4	
TRAP1 fused with SpyCatcher at the C-terminus (TRAP1_(SpyCatcher)) (natural protein, human, UniProt Q12931 60-704, looked up) STQTAEDKEEPLHSIISSTESVQGSTSKHEFQAETKKLLDIVARSLYSEKEVFIRELISNASDALEKLRHKLVSDGQALPEMEIHLQTNAEKGTITIQDTGIGMTQEELVSNLGTIARSGSKAFLDALQNQAEASSKIIGQFGVGFYSAFMVADRVEVYSRSAAPGSLGYQWLSDGSGVFEIAEASGVRTGTKIIIHLKSDCKEFSSEARVRDVVTKYSNFVSFPLYLNGRRMNTLQAIWMMDPKDVREWQHEEFYRYVAQAHDKPRYTLHYKTDAPLNIRSIFYVPDMKPSMFDVSRELGSSVALYSRKVLIQTKATDILPKWLRFIRGVVDSEDIPLNLSRELLQESALIRKLRDVLQQRLIKFFIDQSKKDAEKYAKFFEDYGLFMREGIVTATEQEVKEDIAKLLRYESSALPSGQLTSLSEYASRMRAGTRNIYYLCAPNRHLAEHSPYYEAMKKKDTEVLFCFEQFDELTLLHLREFDKKKLISVETDIVVDHYKEEKFEDRSPAAECLSEKETEELMAWMRNVLGSRVTNVKVTLRLDTHPAMVTVLEMGAARHFLRMQQLAKTQEERAQLLQPTLEINPRHALIKKLNQLRASEPGLAQLLVDQIYENAMIAAGLVDDPRAMVGRLNELLVKALERH			4
